# Results as given in patent publication US7291768.
# What was measured:
# [1] = biological target: GAD-OsMYBS2 (Oryza sativa) (UniProt B8BI93); test: one_hybrid; settings: LacZ increase vs no OsMYBS
# [2] = biological target: T1, GAD-OsMYBS1 (Oryza sativa) (UniProt B8A9B2); test: one_hybrid; settings: LacZ increase vs no OsMYBS
# T1 sequence: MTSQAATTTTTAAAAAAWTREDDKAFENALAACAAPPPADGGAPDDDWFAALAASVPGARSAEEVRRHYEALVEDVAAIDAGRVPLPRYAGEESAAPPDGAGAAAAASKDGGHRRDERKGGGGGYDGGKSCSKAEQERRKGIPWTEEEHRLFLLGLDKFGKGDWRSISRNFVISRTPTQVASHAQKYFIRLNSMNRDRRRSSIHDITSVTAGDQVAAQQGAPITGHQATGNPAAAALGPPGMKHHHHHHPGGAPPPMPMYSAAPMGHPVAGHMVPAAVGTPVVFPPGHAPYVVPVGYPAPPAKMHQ
# Sequence of GAD-OsMYBS2 (Oryza sativa) (B8BI93 other isoform, or with tags, fused parts or gaps): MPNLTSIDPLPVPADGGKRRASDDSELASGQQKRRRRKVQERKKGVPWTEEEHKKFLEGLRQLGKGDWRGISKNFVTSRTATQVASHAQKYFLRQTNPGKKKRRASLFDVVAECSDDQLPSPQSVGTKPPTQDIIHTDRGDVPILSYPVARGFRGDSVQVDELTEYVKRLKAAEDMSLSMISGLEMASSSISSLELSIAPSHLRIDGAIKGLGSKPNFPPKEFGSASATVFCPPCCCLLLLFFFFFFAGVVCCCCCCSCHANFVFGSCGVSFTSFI
substance,measurement,setting,value
"8x(TATCCA+F), eight repeats of -133 to -82 of alphaAmy3",activity,[1],5 fold
same,activity,[2],3 fold
